The values that follow come from US8703913B2, “Sensor” (Medical Research Council, priority 2008, dated 2014).

B1: 5-IATR-ParM (WT): wild-type ParM labeled with 5-IATR (conjugate, UniProt P11904 1-320, looked up)
Plasmid segregation protein …: MLVFIDDGSTNIKLQWQESDGTIKQHISPNSFKREWAVSFGDKKVFNYTLNGEQYSFDPISPDAVVTTNIAWQYSDVNVVAVHHALLTSGLPVSEVDIVCTLPLTEYYDRNNQPNTENIERKKANFRKKITLNGGDTFTIKDVKVMPESIPAGYEVLQELDELDSLLIIDLGGTTLDISQVMGKLSGISKIYGDSSLGVSLVTSAVKDALSLARTKGSSYLADDIIIHRKDNNYLKQRINDENKISIVTEAMNEALRKLEQRVLNTLNEFSGYTHVMVIGGGAELICDAVKKHTQIRDERFFKTNNSQYDLVNGMYLIGN
modifications: 5-IATR label
B2: IDCC-ParM (I27C): ParM I27C/C287A labeled with IDCC (conjugate, UniProt P11904 1-320, looked up, variant I27C C287A)
Plasmid segregation protein …: B1 Plasmid segregation protein … with I27C, C287A
modifications: IDCC label
B3: Alexa 488-ParM (I27C): ParM I27C/C287A labeled with AlexaFluor-488-maleimide (conjugate, UniProt P11904 1-320, looked up, variant I27C C287A)
Plasmid segregation protein …: B1 Plasmid segregation protein … with I27C, C287A
modifications: Alexa Fluor 488 label
B4: MDCC-ParM (D63C): ParM D63C/C287A labeled with MDCC (conjugate, UniProt P11904 1-320, looked up, variant D63C C287A)
Plasmid segregation protein …: B1 Plasmid segregation protein … with D63C, C287A
modifications: MDCC label
B5: MIANS-ParM (S204C): ParM S204C/C287A labeled with MIANS (conjugate, UniProt P11904 1-320, looked up, variant S204C C287A)
Plasmid segregation protein …: B1 Plasmid segregation protein … with S204C, C287A
modifications: MIANS label
B6: Acrylodan-ParM (WT): wild-type ParM labeled with acrylodan (conjugate, UniProt P11904 1-320, looked up)
Plasmid segregation protein …: B1 Plasmid segregation protein …
modifications: acrylodan label
B7: 5-IATR-ParM (I27C) (conjugate, UniProt P11904 1-320, looked up, variant I27C)
Plasmid segregation protein …: B1 Plasmid segregation protein … with I27C
modifications: 5-IATR rhodamine label
B8: 5-IATR-ParM (D63C) (conjugate, UniProt P11904 1-320, looked up, variant D63C)
Plasmid segregation protein …: B1 Plasmid segregation protein … with D63C
modifications: 5-IATR rhodamine label
B9: MDCC-ParM (D58C): ParM D58C/C287A labeled with MDCC (conjugate, UniProt P11904 1-320, looked up, variant D58C C287A)
Plasmid segregation protein …: B1 Plasmid segregation protein … with D58C, C287A
modifications: MDCC label
B10: IDCC-ParM (D58C): ParM D58C/C287A labeled with IDCC (conjugate, UniProt P11904 1-320, looked up, variant D58C C287A)
Plasmid segregation protein …: B1 Plasmid segregation protein … with D58C, C287A
modifications: IDCC label
B11: MDCC-ParM (S204C): ParM S204C/C287A labeled with MDCC (conjugate, UniProt P11904 1-320, looked up, variant S204C C287A)
Plasmid segregation protein …: B1 Plasmid segregation protein … with S204C, C287A
modifications: MDCC label
B12: 5-IATR-ParM (D58C) (conjugate, UniProt P11904 1-320, looked up, variant D58C)
Plasmid segregation protein …: B1 Plasmid segregation protein … with D58C
modifications: 5-IATR rhodamine label
B13: Cy3-ParM (I27C): ParM I27C/C287A labeled with Cy3-maleimide (conjugate, UniProt P11904 1-320, looked up, variant I27C C287A)
Plasmid segregation protein …: B1 Plasmid segregation protein … with I27C, C287A
modifications: Cy3-maleimide label
B14: MDCC-ParM (WT): wild-type ParM labeled with MDCC (conjugate, UniProt P11904 1-320, looked up)
Plasmid segregation protein …: B1 Plasmid segregation protein …
modifications: MDCC label
B15: IDCC-ParM (WT): wild-type ParM labeled with IDCC (conjugate, UniProt P11904 1-320, looked up)
Plasmid segregation protein …: B1 Plasmid segregation protein …
modifications: IDCC label
B16: 6-IATR-ParM (WT): wild-type ParM labeled with 6-IATR (conjugate, UniProt P11904 1-320, looked up)
Plasmid segregation protein …: B1 Plasmid segregation protein …
modifications: 6-IATR label
B17: MPrCC-ParM (T215C): ParM T215C/C287A labeled with MPrCC (conjugate, UniProt P11904 1-320, looked up, variant T215C C287A)
Plasmid segregation protein …: B1 Plasmid segregation protein … with T215C, C287A
modifications: MPrCC label
B18: Cy3b-ParM (I27C): ParM I27C/C287A labeled with Cy3B-maleimide (conjugate, UniProt P11904 1-320, looked up, variant I27C C287A)
Plasmid segregation protein …: B1 Plasmid segregation protein … with I27C, C287A
modifications: Cy3B label
B19: MIANS-ParM (WT): wild-type ParM labeled with MIANS (conjugate, UniProt P11904 1-320, looked up)
Plasmid segregation protein …: B1 Plasmid segregation protein …
modifications: MIANS label
B20: MDCC-ParM (T215C): ParM T215C/C287A labeled with MDCC (conjugate, UniProt P11904 1-320, looked up, variant T215C C287A)
Plasmid segregation protein …: B1 Plasmid segregation protein … with T215C, C287A
modifications: MDCC label
B21: MPrCC-ParM (I27C): ParM I27C/C287A labeled with MPrCC (conjugate, UniProt P11904 1-320, looked up, variant I27C C287A)
Plasmid segregation protein …: B1 Plasmid segregation protein … with I27C, C287A
modifications: MPrCC label
B22: MIANS-ParM (I27C): ParM I27C/C287A labeled with MIANS (conjugate, UniProt P11904 1-320, looked up, variant I27C C287A)
Plasmid segregation protein …: B1 Plasmid segregation protein … with I27C, C287A
modifications: MIANS label

Where a chain is given by its changes, count along the chain named. In names and notes the source's numbering stands.

The experiment can be described thus: Screening mutant/fluorophore combinations for a fluorescence response to ADP. The following applies: ParM mutant/fluorophore combination.
Take B1: the “Fluorescence change, ratio of the intensity in presence of 1 mM ADP to that in the absence of ADP” value (shortened to “Fluorescence change, ratio”) was 0.74.

Turning to B2, the “Fluorescence change, ratio” value is 1.5.

For B3, the “Fluorescence change, ratio” value was found to be 0.78.

For B4, the “Fluorescence change, ratio” value stood at 0.48.

Regarding B5, the “Fluorescence change, ratio” value is recorded as 0.91.

For B6, the “Fluorescence change, ratio” value is on record as 0.59.

In the case of B7, the “Fluorescence change, ratio” value is 1.3.

As to B8, the “Fluorescence change, ratio” value is given as 0.80.

As for B9, the “Fluorescence change, ratio” value is recorded as 0.82.

With B10, the “Fluorescence change, ratio” value was 0.93.

On to B11, for which the “Fluorescence change, ratio” value came to 0.68.

On to B12, for which the “Fluorescence change, ratio” value stood at 0.83.

For B13, the “Fluorescence change, ratio” value was 1.2.

Take B14: the “Fluorescence change, ratio” value was 0.27.

For the molecule B15, the “Fluorescence change, ratio” value is recorded as 0.34.

Regarding B16, the “Fluorescence change, ratio” value is on record as 0.70.

Consider B17, for which the “Fluorescence change, ratio” value came out at 0.78.

For B18, the “Fluorescence change, ratio” value was 0.83.

Turning to B19, the “Fluorescence change, ratio” value is recorded as 0.50.

As to B20, the “Fluorescence change, ratio” value amounted to 0.74.

Consider B21, for which the “Fluorescence change, ratio” value turned out to be 1.1.

For the molecule B22, the “Fluorescence change, ratio” value was 0.72.
